In assay [1] the target is TRIM28 (endogenous human TRIM28 protein) (human (endogenous in HeLa)) (UniProt Q13263).
Assay [2] concerns the target ZNF10 KRAB-AB KRAB-AB (Homo sapiens) (UniProt P21506). The note with it: cited from earlier work.

Chain of TRIM28 (endogenous human TRIM28 protein) (human (endogenous in HeLa)) (Q13263 whole entry): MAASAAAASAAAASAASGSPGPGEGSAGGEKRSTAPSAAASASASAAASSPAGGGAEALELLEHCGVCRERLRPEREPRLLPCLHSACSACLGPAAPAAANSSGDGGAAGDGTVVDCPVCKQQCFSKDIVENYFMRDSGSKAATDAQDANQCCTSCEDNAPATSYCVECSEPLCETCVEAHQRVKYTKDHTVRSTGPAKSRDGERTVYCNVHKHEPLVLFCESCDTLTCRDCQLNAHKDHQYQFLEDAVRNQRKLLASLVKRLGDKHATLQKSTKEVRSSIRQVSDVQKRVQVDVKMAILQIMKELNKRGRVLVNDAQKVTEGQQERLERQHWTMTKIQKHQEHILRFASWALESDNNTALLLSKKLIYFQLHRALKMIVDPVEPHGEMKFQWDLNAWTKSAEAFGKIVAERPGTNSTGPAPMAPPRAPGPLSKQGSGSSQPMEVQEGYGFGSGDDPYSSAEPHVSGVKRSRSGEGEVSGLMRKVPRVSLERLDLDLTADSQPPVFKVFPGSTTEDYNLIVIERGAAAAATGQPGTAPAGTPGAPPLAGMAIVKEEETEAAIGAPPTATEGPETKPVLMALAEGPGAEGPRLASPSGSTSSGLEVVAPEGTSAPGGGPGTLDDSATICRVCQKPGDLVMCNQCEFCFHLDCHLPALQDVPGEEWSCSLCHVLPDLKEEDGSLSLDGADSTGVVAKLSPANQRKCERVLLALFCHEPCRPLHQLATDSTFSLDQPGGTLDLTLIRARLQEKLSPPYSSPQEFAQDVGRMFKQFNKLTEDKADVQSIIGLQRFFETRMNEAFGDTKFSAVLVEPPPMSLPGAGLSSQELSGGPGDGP
Chain of ZNF10 KRAB-AB KRAB-AB (Homo sapiens) (P21506 14-85): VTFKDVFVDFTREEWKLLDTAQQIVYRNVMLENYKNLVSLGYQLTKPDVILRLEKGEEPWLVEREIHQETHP
Chain of TRIM28 (Q13263 2-835): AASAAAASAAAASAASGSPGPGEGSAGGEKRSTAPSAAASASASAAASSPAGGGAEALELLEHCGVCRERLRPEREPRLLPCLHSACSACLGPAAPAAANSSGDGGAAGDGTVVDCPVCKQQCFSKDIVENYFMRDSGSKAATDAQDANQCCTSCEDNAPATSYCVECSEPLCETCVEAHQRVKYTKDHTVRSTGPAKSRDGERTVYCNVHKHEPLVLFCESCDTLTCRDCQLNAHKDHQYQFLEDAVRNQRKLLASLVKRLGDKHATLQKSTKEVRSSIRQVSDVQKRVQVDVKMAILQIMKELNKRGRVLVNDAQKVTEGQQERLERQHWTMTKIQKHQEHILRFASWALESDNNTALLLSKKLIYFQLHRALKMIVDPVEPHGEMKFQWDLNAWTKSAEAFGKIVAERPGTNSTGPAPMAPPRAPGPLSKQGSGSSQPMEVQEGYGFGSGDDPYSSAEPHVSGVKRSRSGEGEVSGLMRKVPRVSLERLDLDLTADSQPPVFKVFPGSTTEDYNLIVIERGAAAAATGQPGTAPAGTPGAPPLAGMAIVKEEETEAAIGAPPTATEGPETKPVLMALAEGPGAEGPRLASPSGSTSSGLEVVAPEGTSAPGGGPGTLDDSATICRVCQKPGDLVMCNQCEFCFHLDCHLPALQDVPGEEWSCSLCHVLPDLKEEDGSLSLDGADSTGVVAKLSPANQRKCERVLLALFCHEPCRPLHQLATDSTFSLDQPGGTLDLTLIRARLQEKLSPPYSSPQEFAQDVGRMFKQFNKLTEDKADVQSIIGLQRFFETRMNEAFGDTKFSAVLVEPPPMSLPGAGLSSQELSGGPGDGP

In assay [1], “GST-XFIN-KRAB-AB (corrected KRAB-AB domain of Xenopus laevis XFIN fused to glutathione S-transferase) (domain or fragment)” yielded a fold repression of a Gal4-site luciferase reporter by Gal4-XFIN-KRAB-AB in EPC fish cells with co-transfected human TRIM28 (negligible without it) of 2 fold.

Consider TRIM28 (from UniProt Q13263), for which the Kd in assay [2] was 142 nM.

One may read the Kd as the constant that tells how readily two partners part at equilibrium.

The record behind these values is publication PMC3912051.
